Experimental findings from patent US20120324602A1 are described below.

Experiment [1] concerns the target DNA-binding bromodomain-containing protein (AT1G20670) (Arabidopsis thaliana). Briefly: TAP-MS, C-terminal GS tag.
The target of experiment [2] is DNA-binding bromodomain-containing protein, similar to At1g20670 (AT1G76380) (Arabidopsis thaliana). Briefly: TAP-MS, C-terminal GS tag.
Experiment [3] concerns the target T1, GLX1 (GLYOXALASE I HOMOLOG) (Arabidopsis thaliana).
T1 sequence (O65398 2-283, looked up): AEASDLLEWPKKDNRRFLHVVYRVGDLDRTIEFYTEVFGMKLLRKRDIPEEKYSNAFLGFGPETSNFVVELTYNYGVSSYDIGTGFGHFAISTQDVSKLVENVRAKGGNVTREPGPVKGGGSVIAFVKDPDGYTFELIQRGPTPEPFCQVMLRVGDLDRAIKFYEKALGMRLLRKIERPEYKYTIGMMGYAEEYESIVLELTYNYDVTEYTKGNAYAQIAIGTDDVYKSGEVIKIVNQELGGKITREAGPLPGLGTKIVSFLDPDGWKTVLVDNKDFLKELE
Briefly: TAP-MS, C-terminal GS tag.

In experiment [4] the target is OASA1 (O-… (THIOL) LYASE (OAS-TL) ISOFORM A1) (Arabidopsis thaliana). Briefly: TAP-MS, C-terminal GS tag.
Experiment [5] deals with SNF2 protein (BRM) (Arabidopsis thaliana). Briefly: TAP-MS, C-terminal GS tag.
Experiment [6] deals with SWIB complex BAF60b domain-containing protein (Swp73B) (Arabidopsis thaliana). Briefly: TAP-MS, C-terminal GS tag.
Experiment [7] has as its target Swp73A (Arabidopsis thaliana). Briefly: TAP-MS, C-terminal GS tag.
Experiment [8] addresses T2, actin-related protein 4 (ARP4) (Arabidopsis thaliana).
T2 sequence (Q84M92 1-441, looked up): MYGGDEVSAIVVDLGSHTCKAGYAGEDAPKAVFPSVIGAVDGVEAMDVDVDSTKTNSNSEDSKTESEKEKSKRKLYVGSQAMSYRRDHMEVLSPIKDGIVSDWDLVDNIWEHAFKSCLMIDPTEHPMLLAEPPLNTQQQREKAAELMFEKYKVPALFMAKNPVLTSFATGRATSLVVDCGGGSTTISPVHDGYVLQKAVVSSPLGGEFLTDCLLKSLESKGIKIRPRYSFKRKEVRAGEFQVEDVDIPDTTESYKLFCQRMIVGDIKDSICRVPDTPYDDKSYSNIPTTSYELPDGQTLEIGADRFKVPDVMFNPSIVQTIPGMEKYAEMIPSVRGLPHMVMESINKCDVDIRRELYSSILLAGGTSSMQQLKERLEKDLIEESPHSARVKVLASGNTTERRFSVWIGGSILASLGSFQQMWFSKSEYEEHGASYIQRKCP
In words: TAP-MS, C-terminal GS tag.

The target in experiment [9] is T3, actin-related protein 7 (ARP7) (Arabidopsis thaliana).
T3 sequence (Q8L4Y5 1-363, looked up): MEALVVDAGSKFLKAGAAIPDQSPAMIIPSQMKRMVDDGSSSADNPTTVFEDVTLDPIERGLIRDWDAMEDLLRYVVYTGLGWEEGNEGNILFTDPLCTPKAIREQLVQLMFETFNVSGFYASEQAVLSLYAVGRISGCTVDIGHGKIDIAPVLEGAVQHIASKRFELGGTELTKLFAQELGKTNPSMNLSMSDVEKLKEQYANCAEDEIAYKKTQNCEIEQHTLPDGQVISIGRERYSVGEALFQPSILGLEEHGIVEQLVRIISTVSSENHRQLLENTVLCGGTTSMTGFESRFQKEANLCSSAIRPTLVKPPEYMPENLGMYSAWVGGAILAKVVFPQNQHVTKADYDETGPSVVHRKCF
In words: TAP-MS, C-terminal GS tag.

The target in experiment [10] is expressed protein, similar to At3g03460 (AT5G17510) (Arabidopsis thaliana). Briefly: TAP-MS, C-terminal GS tag.
Experiment [11] deals with expressed protein, similar to At4g22320 (AT5G55210) (Arabidopsis thaliana). In words: TAP-MS, C-terminal GS tag.
Experiment [12] has as its target unknown, similar to At5g55210 (AT4G22320) (Arabidopsis thaliana). In words: TAP-MS, C-terminal GS tag.
The target in experiment [13] is CPK23 (calcium-dependent protein kinase 23) (Arabidopsis thaliana). Briefly: TAP-MS, N-terminal GS tag.
Experiment [14] has as its target DNA-binding bromodomain-containing protein (AT1G20670) (Arabidopsis thaliana). In words: TAP-MS, N-terminal GS tag.
Experiment [15] addresses DNA-binding bromodomain-containing protein, similar to At1g20670 (AT1G76380) (Arabidopsis thaliana). In words: TAP-MS, N-terminal GS tag.
Experiment [16] concerns the target SNF2 protein (BRM) (Arabidopsis thaliana). Briefly: TAP-MS, N-terminal GS tag.
The target in experiment [17] is SWIB complex BAF60b domain-containing protein (Swp73B) (Arabidopsis thaliana). Briefly: TAP-MS, N-terminal GS tag.
In experiment [18] the target is Swp73A (Arabidopsis thaliana). In words: TAP-MS, N-terminal GS tag.
Experiment [19] deals with T2, actin-related protein 4 (ARP4) (Arabidopsis thaliana). In words: TAP-MS, N-terminal GS tag.
The target in experiment [20] is T3, actin-related protein 7 (ARP7) (Arabidopsis thaliana). In words: TAP-MS, N-terminal GS tag.
The target of experiment [21] is expressed protein, similar to At3g03460 (AT5G17510) (Arabidopsis thaliana). In words: TAP-MS, N-terminal GS tag.
The target of experiment [22] is expressed protein, similar to At4g22320 (AT5G55210) (Arabidopsis thaliana). In words: TAP-MS, N-terminal GS tag.
Experiment [23] addresses unknown protein, similar to At5g17510 (AT3G03460) (Arabidopsis thaliana). In words: TAP-MS, N-terminal GS tag.
In experiment [24] the target is AAC1 (ADP/ATP CARRIER 1) (Arabidopsis thaliana). Briefly: TAP-MS, C-terminal GS tag.
The target in experiment [25] is HIS4 (Arabidopsis thaliana). Briefly: TAP-MS, C-terminal GS tag.

B1: SWI3C-GS (protein, UniProt Q9XI07 1-807, looked up)
SWI/SNF complex subunit SWI3C: MPASEDRRGKWKRKKRGGLSAARKPKQEEEDMEEEDEENNNNNNEEMDDVENADELQQNGGATPDPGLGIGEVVEDSGSRISDFPAVVKRVVIRPHASVMAVVAAERAGLIGETRGQGSLPALENISFGQLQALSTVPADSLDLERSDGSSSAYVISPPPIMDGEGVVKRFGDLVHVLPMHSDWFAPNTVDRLERQVVPQFFSGKSPNHTPESYMEFRNAIVSKYVENPEKTLTISDCQGLVDGVDIEDFARVFRFLDHWGIINYCATAQSHPGPLRDVSDVREDTNGEVNVPSAALTSIDSLIKFDKPNCRHKGGEVYSSLPSLDGDSPDLDIRIREHLCDSHCNHCSRPLPTVYFQSQKKGDILLCCDCFHHGRFVVGHSCLDFVRVDPMKFYGDQDGDNWTDQETLLLLEAVELYNENWVQIADHVGSKSKAQCILHFLRLPVEDGLLDNVEVSGVTNTENPTNGYDHKGTDSNGDLPGYSEQGSDTEIKLPFVKSPNPVMALVAFLASAVGPRVAASCAHESLSVLSEDDRMKSEGMQGKEASLLDGENQQQDGAHKTSSQNGAEAQTPLPQDKVMAAFRAGLSAAATKAKLFADHEEREIQRLSANIVNHQLKRMELKLKQFAEIETLLMKECEQVEKTRQRFSAERARMLSARFGSPGGISPQTNNLQGMSLSTGGNNINSLMHQQHQQQQASATSQPSIIPGFSNNPQVQAQMHFMARQQQQQQQQQQQQQQAFSFGPRLPLNAIQTNAGSTASPNVMFGNNQLNNPAAAGAASINQPSFSHPMVRSSTGSGSGSGLGLN
modifications: C-terminal GS tag
B1: the C-GS (times co-purified) in [1] turned out to be 2; in [2] it was 2; in [3], 1; in [4], 1; in experiment [5], 2; in experiment [6], 2. Besides, the C-GS (times co-purified) in experiment [7] worked out at 2; in experiment [8], 2; in experiment [9], 2; in [10] it was 2; in [11] it was 2; in experiment [12] it was 1.

B2: GS-SWI3C (protein, UniProt Q9XI07 1-807, looked up)
SWI/SNF complex subunit SWI3C: MPASEDRRGKWKRKKRGGLSAARKPKQEEEDMEEEDEENNNNNNEEMDDVENADELQQNGGATPDPGLGIGEVVEDSGSRISDFPAVVKRVVIRPHASVMAVVAAERAGLIGETRGQGSLPALENISFGQLQALSTVPADSLDLERSDGSSSAYVISPPPIMDGEGVVKRFGDLVHVLPMHSDWFAPNTVDRLERQVVPQFFSGKSPNHTPESYMEFRNAIVSKYVENPEKTLTISDCQGLVDGVDIEDFARVFRFLDHWGIINYCATAQSHPGPLRDVSDVREDTNGEVNVPSAALTSIDSLIKFDKPNCRHKGGEVYSSLPSLDGDSPDLDIRIREHLCDSHCNHCSRPLPTVYFQSQKKGDILLCCDCFHHGRFVVGHSCLDFVRVDPMKFYGDQDGDNWTDQETLLLLEAVELYNENWVQIADHVGSKSKAQCILHFLRLPVEDGLLDNVEVSGVTNTENPTNGYDHKGTDSNGDLPGYSEQGSDTEIKLPFVKSPNPVMALVAFLASAVGPRVAASCAHESLSVLSEDDRMKSEGMQGKEASLLDGENQQQDGAHKTSSQNGAEAQTPLPQDKVMAAFRAGLSAAATKAKLFADHEEREIQRLSANIVNHQLKRMELKLKQFAEIETLLMKECEQVEKTRQRFSAERARMLSARFGSPGGISPQTNNLQGMSLSTGGNNINSLMHQQHQQQQASATSQPSIIPGFSNNPQVQAQMHFMARQQQQQQQQQQQQQQAFSFGPRLPLNAIQTNAGSTASPNVMFGNNQLNNPAAAGAASINQPSFSHPMVRSSTGSGSGSGLGLN
modifications: N-terminal GS tag
Regarding B2, the N-GS (times co-purified) was found to be 1 in [13]; 3 in experiment [14]; 2 in experiment [15]; 3 in [16]; 3 in experiment [17]; 3 in experiment [18]. Further, the N-GS (times co-purified) in experiment [19] was determined as 3; in [20], 3; in [21], 3; in experiment [22] it was 2; in experiment [23], 1.

B3: ARP7-GS (protein, UniProt Q8L4Y5 1-363, looked up)
Actin-related protein 7: MEALVVDAGSKFLKAGAAIPDQSPAMIIPSQMKRMVDDGSSSADNPTTVFEDVTLDPIERGLIRDWDAMEDLLRYVVYTGLGWEEGNEGNILFTDPLCTPKAIREQLVQLMFETFNVSGFYASEQAVLSLYAVGRISGCTVDIGHGKIDIAPVLEGAVQHIASKRFELGGTELTKLFAQELGKTNPSMNLSMSDVEKLKEQYANCAEDEIAYKKTQNCEIEQHTLPDGQVISIGRERYSVGEALFQPSILGLEEHGIVEQLVRIISTVSSENHRQLLENTVLCGGTTSMTGFESRFQKEANLCSSAIRPTLVKPPEYMPENLGMYSAWVGGAILAKVVFPQNQHVTKADYDETGPSVVHRKCF
modifications: C-terminal GS tag
As to B3, the C-GS (times co-purified) in experiment [24] was determined as 1; in experiment [25] it was 1; in experiment [4], 1; in experiment [11] it was 2; in experiment [12] it was 2.
